Measurements as given in patent US20190134153A1, “IMMUNOMODULATORY EFFECT OF INHALED KINASE INHIBITOR PEPTIDES IN LUNG” (MOERAE MATRIX, INC., priority 2017, published 2019).

What was measured:
Assay in all cases: Kinase Profiling Assay
Type in all cases: biochemical
Conditions in all cases: 100 μM
EGFR(T790M, L858R)(h) = EGFR(T790M, L858R)(h) (Homo sapiens, UniProt P00533, L858R/T790M)
EphA2(h) = EphA2(h) (Homo sapiens, UniProt P29317)
Flt3(h) = Flt3(h) (Homo sapiens, UniProt P36888)
CLK3(h) = CLK3(h) (Homo sapiens, UniProt P49761)
CLK3(h), sequence (P49761 whole entry): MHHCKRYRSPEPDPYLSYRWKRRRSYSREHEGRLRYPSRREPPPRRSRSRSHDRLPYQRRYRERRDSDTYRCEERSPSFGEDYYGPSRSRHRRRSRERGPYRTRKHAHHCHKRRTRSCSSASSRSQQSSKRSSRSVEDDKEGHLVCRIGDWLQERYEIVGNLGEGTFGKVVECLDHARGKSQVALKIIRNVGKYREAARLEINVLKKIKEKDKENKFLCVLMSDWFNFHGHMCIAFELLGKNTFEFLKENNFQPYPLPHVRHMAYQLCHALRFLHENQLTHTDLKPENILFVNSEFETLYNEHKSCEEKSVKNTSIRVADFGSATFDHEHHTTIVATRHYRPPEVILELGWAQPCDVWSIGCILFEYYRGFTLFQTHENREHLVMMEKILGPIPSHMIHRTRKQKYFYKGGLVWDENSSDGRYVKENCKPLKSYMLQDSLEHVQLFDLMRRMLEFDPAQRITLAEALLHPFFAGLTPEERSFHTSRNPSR

p70S6K(h) = p70S6K(h) (Homo sapiens, UniProt P23443)
Itk(h) = target: T1, Itk(h) (Homo sapiens, UniProt Q08881)
T1 sequence (Q08881 1-620): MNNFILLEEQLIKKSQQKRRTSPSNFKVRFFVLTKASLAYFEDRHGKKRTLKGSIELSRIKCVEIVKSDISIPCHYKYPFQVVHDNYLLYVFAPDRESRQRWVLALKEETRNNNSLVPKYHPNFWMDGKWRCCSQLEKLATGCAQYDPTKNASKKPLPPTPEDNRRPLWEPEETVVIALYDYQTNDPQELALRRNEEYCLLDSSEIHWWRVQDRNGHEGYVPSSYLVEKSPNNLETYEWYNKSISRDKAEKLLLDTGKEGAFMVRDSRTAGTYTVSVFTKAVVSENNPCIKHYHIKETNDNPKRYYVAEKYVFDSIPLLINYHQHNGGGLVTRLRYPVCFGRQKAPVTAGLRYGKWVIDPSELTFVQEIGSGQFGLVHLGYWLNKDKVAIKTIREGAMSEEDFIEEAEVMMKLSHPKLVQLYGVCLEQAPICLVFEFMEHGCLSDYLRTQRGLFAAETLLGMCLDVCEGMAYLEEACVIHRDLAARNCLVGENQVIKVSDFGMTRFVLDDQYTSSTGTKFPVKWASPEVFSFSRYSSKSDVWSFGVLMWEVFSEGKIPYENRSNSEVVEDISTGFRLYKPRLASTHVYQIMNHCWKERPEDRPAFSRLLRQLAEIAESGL

DMPK(h) = target: T2, DMPK(h) (Homo sapiens, UniProt Q09013)
T2 sequence (Q09013 1-629): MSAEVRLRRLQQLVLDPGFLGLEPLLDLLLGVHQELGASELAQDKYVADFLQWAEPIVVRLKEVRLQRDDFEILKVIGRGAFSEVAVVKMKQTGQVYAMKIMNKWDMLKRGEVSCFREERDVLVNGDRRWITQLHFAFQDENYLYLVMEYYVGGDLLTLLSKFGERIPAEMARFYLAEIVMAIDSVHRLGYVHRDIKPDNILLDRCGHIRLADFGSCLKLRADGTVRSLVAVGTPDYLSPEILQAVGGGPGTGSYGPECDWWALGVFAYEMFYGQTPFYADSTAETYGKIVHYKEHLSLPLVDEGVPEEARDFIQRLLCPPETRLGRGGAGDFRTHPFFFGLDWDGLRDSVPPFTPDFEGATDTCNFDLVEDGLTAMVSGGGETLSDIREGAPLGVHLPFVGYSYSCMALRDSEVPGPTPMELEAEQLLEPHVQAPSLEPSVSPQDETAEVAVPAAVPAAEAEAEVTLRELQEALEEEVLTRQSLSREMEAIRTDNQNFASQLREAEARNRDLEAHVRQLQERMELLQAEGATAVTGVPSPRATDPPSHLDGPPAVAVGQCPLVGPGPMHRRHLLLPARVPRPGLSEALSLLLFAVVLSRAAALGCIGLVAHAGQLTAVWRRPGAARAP

RIPK2(h) = RIPK2(h) (Homo sapiens, UniProt O43353)
MSK2(h) = MSK2(h) (Homo sapiens, UniProt O75676)
MSK2(h), sequence (O75676 whole entry): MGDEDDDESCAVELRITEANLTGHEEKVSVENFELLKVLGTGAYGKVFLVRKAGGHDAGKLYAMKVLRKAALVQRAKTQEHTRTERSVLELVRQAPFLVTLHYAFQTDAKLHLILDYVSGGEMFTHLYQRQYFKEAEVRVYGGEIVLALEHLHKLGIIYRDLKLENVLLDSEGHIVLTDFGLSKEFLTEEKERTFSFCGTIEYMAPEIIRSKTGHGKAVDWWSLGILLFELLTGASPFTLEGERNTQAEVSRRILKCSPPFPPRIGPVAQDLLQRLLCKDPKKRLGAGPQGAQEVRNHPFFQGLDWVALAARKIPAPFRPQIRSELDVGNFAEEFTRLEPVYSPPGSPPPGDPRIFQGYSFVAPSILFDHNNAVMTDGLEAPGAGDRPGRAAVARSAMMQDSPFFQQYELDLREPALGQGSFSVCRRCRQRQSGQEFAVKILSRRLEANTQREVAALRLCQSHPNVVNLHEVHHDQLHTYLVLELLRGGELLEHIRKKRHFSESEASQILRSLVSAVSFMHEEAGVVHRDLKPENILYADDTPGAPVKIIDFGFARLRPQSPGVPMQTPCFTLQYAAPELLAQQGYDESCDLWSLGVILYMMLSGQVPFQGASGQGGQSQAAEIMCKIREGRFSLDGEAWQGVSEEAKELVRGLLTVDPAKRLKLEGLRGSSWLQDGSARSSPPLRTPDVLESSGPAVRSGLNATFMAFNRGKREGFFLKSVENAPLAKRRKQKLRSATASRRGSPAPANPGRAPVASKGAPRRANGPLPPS

MAPKAP-K3(h) = MAPKAP-K3(h) (Homo sapiens, UniProt Q16644)
PKCδ(h) = PKCδ(h) (Homo sapiens, UniProt Q05655)
PKCδ(h), sequence (Q05655 whole entry): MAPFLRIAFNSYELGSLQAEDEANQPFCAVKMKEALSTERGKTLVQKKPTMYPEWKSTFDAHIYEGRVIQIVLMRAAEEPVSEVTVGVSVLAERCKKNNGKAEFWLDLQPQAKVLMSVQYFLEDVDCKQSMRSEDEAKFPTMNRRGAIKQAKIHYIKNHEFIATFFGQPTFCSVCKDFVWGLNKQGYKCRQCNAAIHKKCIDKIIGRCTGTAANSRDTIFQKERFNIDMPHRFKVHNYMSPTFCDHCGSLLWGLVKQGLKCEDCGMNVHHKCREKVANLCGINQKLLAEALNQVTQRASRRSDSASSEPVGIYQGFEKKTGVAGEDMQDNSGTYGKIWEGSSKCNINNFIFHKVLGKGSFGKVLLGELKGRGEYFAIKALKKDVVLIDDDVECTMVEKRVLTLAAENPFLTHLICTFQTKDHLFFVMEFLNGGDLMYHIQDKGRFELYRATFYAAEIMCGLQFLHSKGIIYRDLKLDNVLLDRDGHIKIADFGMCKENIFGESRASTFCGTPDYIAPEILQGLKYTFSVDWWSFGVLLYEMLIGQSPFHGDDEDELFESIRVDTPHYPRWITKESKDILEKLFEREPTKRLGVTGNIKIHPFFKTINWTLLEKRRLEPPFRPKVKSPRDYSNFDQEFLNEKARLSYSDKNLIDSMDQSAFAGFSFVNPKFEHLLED

CaMKIIγ(h) = CaMKIIγ(h) (Homo sapiens, UniProt Q13555)
PKCγ(h) = PKCγ(h) (Homo sapiens, UniProt P05129)
JNK3(h) = JNK3(h) (Homo sapiens, UniProt P53779)
JNK3(h), sequence (P53779 whole entry): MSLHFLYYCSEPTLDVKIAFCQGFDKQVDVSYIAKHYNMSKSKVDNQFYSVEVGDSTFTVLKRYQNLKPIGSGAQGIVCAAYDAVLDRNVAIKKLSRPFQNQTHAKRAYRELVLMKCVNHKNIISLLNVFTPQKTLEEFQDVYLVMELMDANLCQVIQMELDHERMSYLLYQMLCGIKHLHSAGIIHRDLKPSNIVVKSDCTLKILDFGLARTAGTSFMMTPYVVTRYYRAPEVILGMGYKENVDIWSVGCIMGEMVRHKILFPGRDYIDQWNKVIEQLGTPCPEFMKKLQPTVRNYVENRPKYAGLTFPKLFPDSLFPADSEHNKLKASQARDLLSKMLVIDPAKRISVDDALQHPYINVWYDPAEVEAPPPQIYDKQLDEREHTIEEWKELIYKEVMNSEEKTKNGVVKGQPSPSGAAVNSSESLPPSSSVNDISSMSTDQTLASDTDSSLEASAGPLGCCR

SAPK2a(T106M)(h) = SAPK2a(T106M)(h) (Homo sapiens, UniProt Q16539, T106M)
CaMKIIβ(h) = CaMKIIβ(h) (Homo sapiens, UniProt Q13554)
PAK2(h) = PAK2(h) (Homo sapiens, UniProt Q13177)
PAK2(h), sequence (Q13177 whole entry): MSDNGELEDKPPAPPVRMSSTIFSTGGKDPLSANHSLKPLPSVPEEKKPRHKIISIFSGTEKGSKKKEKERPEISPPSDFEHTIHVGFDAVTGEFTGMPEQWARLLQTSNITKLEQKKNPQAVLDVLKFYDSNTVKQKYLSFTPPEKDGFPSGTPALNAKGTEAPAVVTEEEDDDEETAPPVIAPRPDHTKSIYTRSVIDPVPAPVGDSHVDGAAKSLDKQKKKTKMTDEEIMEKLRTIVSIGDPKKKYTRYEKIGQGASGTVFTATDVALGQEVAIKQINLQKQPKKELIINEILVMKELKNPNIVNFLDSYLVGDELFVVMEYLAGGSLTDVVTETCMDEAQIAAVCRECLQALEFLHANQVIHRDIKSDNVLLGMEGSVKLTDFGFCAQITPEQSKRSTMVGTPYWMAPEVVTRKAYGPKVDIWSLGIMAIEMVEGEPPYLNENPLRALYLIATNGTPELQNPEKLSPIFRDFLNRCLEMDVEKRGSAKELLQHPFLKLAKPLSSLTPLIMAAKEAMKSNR

PKBγ(h) = PKBγ(h) (Homo sapiens, UniProt Q9Y243)
PKBγ(h), sequence (Q9Y243 whole entry): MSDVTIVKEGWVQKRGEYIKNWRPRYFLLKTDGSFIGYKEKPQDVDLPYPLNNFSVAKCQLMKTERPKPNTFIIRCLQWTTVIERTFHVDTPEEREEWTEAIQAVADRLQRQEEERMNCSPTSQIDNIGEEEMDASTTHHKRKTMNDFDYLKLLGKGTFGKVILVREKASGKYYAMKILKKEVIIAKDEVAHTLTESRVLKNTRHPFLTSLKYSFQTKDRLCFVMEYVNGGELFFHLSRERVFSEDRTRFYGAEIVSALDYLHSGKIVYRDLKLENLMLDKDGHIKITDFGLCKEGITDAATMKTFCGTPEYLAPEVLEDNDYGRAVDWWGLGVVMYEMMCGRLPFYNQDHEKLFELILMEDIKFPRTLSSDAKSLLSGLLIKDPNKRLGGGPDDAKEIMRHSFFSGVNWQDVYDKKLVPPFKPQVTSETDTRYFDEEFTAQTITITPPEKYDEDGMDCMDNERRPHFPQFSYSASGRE

Abl(Y253F)(h) = Abl(Y253F)(h) (Homo sapiens, UniProt P00519, Y253F)
TrkA(h) = TrkA(h) (Homo sapiens, UniProt P04629)
TrkA(h), sequence (P04629 33-796): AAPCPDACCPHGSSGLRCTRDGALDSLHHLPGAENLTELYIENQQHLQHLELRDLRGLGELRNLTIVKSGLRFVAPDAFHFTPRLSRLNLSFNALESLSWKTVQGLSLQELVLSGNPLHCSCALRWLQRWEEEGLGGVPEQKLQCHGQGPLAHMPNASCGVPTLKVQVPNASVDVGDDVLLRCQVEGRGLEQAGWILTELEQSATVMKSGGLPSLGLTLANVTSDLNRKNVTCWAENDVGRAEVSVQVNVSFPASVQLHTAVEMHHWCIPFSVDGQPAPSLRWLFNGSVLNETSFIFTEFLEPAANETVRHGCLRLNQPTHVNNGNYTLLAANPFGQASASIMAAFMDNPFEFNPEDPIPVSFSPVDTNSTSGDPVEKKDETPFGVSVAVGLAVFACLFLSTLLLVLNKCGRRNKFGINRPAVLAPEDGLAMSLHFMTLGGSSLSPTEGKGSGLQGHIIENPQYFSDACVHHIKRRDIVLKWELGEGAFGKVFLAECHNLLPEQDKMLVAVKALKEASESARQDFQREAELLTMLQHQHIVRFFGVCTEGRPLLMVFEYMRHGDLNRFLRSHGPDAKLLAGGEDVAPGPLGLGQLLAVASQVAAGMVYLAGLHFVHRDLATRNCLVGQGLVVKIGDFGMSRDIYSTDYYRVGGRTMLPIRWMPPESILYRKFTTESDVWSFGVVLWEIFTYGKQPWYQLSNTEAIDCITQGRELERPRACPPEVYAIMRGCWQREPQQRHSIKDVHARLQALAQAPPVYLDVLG

Sequence | % activity (EGFR(T790M, L858R)(h)) | % activity (EphA2(h)) | % activity (Flt3(h)) | % activity (CLK3(h)) | % activity (p70S6K(h)) | % activity (Itk(h)) | % activity (DMPK(h)) | % activity (RIPK2(h)) | % activity (MSK2(h)) | % activity (MAPKAP-K3(h)) | % activity (PKCδ(h)) | % activity (CaMKIIγ(h)) | % activity (PKCγ(h)) | % activity (JNK3(h)) | % activity (SAPK2a(T106M)(h)) | % activity (CaMKIIβ(h)) | % activity (PAK2(h)) | % activity (PKBγ(h)) | % activity (Abl(Y253F)(h)) | % activity (TrkA(h))
YARAAARQARAKALNRQLGVA [MMI-0200] | 108% | 95% | 99% | 76% | 84% | 98% | 66% | 98% | 88% | 39% | 101% | 94% | 101% | 90% | 100% | 53% | 69% |  |  | 
KAFAKLAARLYRKALARQLGVAA [MMI-0400] | 78% | 17% | 18% | 84% | 33% | 63% | 54% | 98% | 52% | 7% | 90% | 3% | 79% | 70% | 99% | 11% | 59% | 41% | 78% | 17%
HRRIKAWLKKIKALARQLGVAA [MMI-0500] | 53% |  | 17% | 76% | 3% | 7% | 12% | 30% | 14% | 9% | 61% | 3% | 6% | 171% | 32% | 3% | 44% | 20% | 29% | 24%
FAKLAARLYRKALARQLGVAA [MMI-0300] | 85% | 31% | 84% | 61% | 35% | 77% | 59% | 97% | 56% | 3% | 101% | 5% | 89% | 89% | 97% | 2% | 65% | 20% | 86% | 25%
